In IntAct's records for PubMed 27519415:

B1: Glutaredoxin-3 (Homo sapiens), O76003 (parent)
chain: MAAGAAEAAVAAVEEVGSAGQFEELLRLKAKSLLVVHFWAPWAPQCAQMNEVMAELAKELPQVSFVKLEAEGVPEVSEKYEISSVPTFLFFKNSQKIDRLDGAHAPELTKKVQRHASSGSFLPSANEHLKEDLNLRLKKLTHAAPCMLFMKGTPQEPRCGFSKQMVEILHKHNIQFSSFDIFSDEEVRQGLKAYSSWPTYPQLYVSGELIGGLDIIKELEASEELDTICPKAPKLEERLKVLTNKASVMLFMKGNKQEAKCGFSKQILEILNSTGVEYETFDILEDEEVRQGLKAYSNWPTYPQLYVKGELVGGLDIVKELKENGELLPILRGEN
B2: Glutaredoxin-3 (Homo sapiens), O76003 (parent)
chain: B1 chain
partner: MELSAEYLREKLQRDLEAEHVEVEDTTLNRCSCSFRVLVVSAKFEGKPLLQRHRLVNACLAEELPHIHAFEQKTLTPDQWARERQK

Variants of: B1
Conditions: with cpin1_human CIAPIN1, Q6FI81
Sequence of cpin1_human CIAPIN1, Q6FI81 (Q6FI81 whole entry): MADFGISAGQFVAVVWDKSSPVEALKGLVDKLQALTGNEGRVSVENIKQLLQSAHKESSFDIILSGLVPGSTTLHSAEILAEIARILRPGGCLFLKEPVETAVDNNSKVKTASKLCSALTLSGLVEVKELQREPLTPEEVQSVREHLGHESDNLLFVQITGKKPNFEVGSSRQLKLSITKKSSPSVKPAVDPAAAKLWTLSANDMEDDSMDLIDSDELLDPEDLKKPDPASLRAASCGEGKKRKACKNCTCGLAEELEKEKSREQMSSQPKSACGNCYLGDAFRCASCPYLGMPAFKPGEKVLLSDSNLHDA

effect of a mutation on the interaction	Variant
disrupting interaction strength	MAAGAAEAAVAAVEEVGSAGQFEELLRLKAKSLLVVHFWAPWAPQCAQMNEVMAELAKELPQVSFVKLEAEGVPEVSEKYEISSVPTFLFFKNSQKIDRLDGAHAPELTKKVQRHASSGSFLPSANEHLKEDLNLRLKKLTHAAPCMLFMKGTPQEPRSGFSKQMVEILHKHNIQFSSFDIFSDEEVRQGLKAYSSDATYPQLYVSGELIGGLDIIKELEASEELDTICPKAPKLEERLKVLTNKASVMLFMKGNKQEAKSGFSKQILEILNSTGVEYETFDILEDEEVRQGLKAYSNDATYPQLYVKGELVGGLDIVKELKENGELLPILRGEN [C159S;W197D;P198A;C261S;W299D;P300A]

Variants of: B2
Conditions: with bola2_human BOLA2, Q9H3K6

effect of a mutation on the interaction	Variant
decreasing interaction strength	MAAGAAEAAVAAVEEVGSAGQFEELLRLKAKSLLVVHFWAPWAPQCAQMNEVMAELAKELPQVSFVKLEAEGVPEVSEKYEISSVPTFLFFKNSQKIDRLDGAHAPELTKKVQRHASSGSFLPSANEHLKEDLNLRLKKLTHAAPCMLFMKGTPQEPRSGFSKQMVEILHKHNIQFSSFDIFSDEEVRQGLKAYSSDATYPQLYVSGELIGGLDIIKELEASEELDTICPKAPKLEERLKVLTNKASVMLFMKGNKQEAKCGFSKQILEILNSTGVEYETFDILEDEEVRQGLKAYSNWPTYPQLYVKGELVGGLDIVKELKENGELLPILRGEN [C159S;W197D;P198A]
disrupting interaction strength	MAAGAAEAAVAAVEEVGSAGQFEELLRLKAKSLLVVHFWAPWAPQCAQMNEVMAELAKELPQVSFVKLEAEGVPEVSEKYEISSVPTFLFFKNSQKIDRLDGAHAPELTKKVQRHASSGSFLPSANEHLKEDLNLRLKKLTHAAPCMLFMKGTPQEPRSGFSKQMVEILHKHNIQFSSFDIFSDEEVRQGLKAYSSDATYPQLYVSGELIGGLDIIKELEASEELDTICPKAPKLEERLKVLTNKASVMLFMKGNKQEAKSGFSKQILEILNSTGVEYETFDILEDEEVRQGLKAYSNDATYPQLYVKGELVGGLDIVKELKENGELLPILRGEN [C159S;W197D;P198A;C261S;W299D;P300A]
decreasing interaction strength	MAAGAAEAAVAAVEEVGSAGQFEELLRLKAKSLLVVHFWAPWAPQCAQMNEVMAELAKELPQVSFVKLEAEGVPEVSEKYEISSVPTFLFFKNSQKIDRLDGAHAPELTKKVQRHASSGSFLPSANEHLKEDLNLRLKKLTHAAPCMLFMKGTPQEPRCGFSKQMVEILHKHNIQFSSFDIFSDEEVRQGLKAYSSWPTYPQLYVSGELIGGLDIIKELEASEELDTICPKAPKLEERLKVLTNKASVMLFMKGNKQEAKSGFSKQILEILNSTGVEYETFDILEDEEVRQGLKAYSNDATYPQLYVKGELVGGLDIVKELKENGELLPILRGEN [C261S;W299D;P300A]
